{"source": "patent US7255862", "key": {"[1]": {"target": "feline immunodeficiency virus (FIV) Env, Villefranche strain, expressed by ALVAC recombinants vCP242 / vCP255 (feline immunodeficiency virus, Villefranche strain)", "assay": "sandwich kinetic ELISA, plate coated with pooled FIV env-specific MAb 2 ug/well, env lysate 1 ug/well, control rabbit serum 1:100"}, "[2]": {"target": "feline immunodeficiency virus (FIV) Env, Villefranche strain, expressed by ALVAC recombinants vCP242 / vCP255 (feline immunodeficiency virus, Villefranche strain)", "assay": "sandwich kinetic ELISA, plate coated with pooled FIV env-specific MAb 2 ug/well, env lysate 0.2 ug/well, control rabbit serum 1:100"}, "[3]": {"target": "feline immunodeficiency virus (FIV) Env, Villefranche strain, expressed by ALVAC recombinants vCP242 / vCP255 (feline immunodeficiency virus, Villefranche strain)", "assay": "sandwich kinetic ELISA, plate coated with pooled FIV gag-specific MAb 2 ug/well (mismatched capture control), env lysate 1 ug/well, control rabbit serum 1:100"}, "[4]": {"target": "feline immunodeficiency virus (FIV) Env, Villefranche strain, expressed by ALVAC recombinants vCP242 / vCP255 (feline immunodeficiency virus, Villefranche strain)", "assay": "sandwich kinetic ELISA, plate coated with pooled FIV gag-specific MAb 2 ug/well (mismatched capture control), env lysate 0.2 ug/well, control rabbit serum 1:100"}, "[5]": {"target": "feline immunodeficiency virus (FIV) Env, Villefranche strain, expressed by ALVAC recombinants vCP242 / vCP255 (feline immunodeficiency virus, Villefranche strain)", "assay": "sandwich kinetic ELISA, plate coated with pooled FIV env-specific MAb 2 ug/well, env lysate 5 ug/well, control rabbit serum 1:100"}, "[6]": {"target": "feline immunodeficiency virus (FIV) Env, Villefranche strain, expressed by ALVAC recombinants vCP242 / vCP255 (feline immunodeficiency virus, Villefranche strain)", "assay": "sandwich kinetic ELISA, plate coated with pooled FIV gag-specific MAb 2 ug/well (mismatched capture control), env lysate 5 ug/well, control rabbit serum 1:100"}}, "data": [{"substance": "Rabbit A039 prebleed serum", "values": [{"measurement": "KELISA (mOD/min)", "setting": "[1]", "value": 0.7, "unit": "mOD/min"}, {"measurement": "KELISA (mOD/min)", "setting": "[2]", "value": 0.9, "unit": "mOD/min"}, {"measurement": "KELISA (mOD/min)", "setting": "[3]", "value": 1.2, "unit": "mOD/min"}, {"measurement": "KELISA (mOD/min)", "setting": "[4]", "value": 1, "unit": "mOD/min"}, {"measurement": "KELISA (mOD/min)", "setting": "[5]", "value": 0.9, "unit": "mOD/min"}, {"measurement": "KELISA (mOD/min)", "setting": "[6]", "value": 1, "unit": "mOD/min"}]}]}
